Assay results: US20140087995A1 (published 2014)
Numbered stars: 1 amine (or outer) side, 2 acyl side, 3 side chain; on linkers, the order of the positions; unused ones are H or OH. Bridge positions count the residues as written; N and C are the ends. Side chains are listed from the residue outwards. Ends that are not written are not given here. * marks the point of attachment. C20 diacid = O=C(O)CCCCCCCCCCCCCCCCCCC(=O)*; γGlu = O=C(O)[C@H](CCC(=O)[*:2])N[*:1]; AEEA = NCCOCCOCC(=O)O

T1: human calcitonin receptor (human, UniProt P30988 25-474)
T1 construct: whole, on cells; Membranes of a BHK tk'ts 13 cell line stably transfected with the human calcitonin receptor; also called hCTR; hCT
T1 sequence (looked up): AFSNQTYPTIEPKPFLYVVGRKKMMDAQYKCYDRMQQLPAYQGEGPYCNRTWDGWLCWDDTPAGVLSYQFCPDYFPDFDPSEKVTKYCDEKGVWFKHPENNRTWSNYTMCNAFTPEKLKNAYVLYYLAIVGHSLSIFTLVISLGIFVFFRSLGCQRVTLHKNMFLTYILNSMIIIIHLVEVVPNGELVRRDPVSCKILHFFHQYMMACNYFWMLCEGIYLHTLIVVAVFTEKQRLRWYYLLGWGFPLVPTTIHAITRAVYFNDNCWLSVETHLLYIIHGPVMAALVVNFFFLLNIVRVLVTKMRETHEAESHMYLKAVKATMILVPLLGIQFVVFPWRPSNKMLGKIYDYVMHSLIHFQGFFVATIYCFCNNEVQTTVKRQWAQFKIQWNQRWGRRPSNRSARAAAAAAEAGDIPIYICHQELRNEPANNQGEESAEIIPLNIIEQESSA

T2: rat calcitonin receptor (rat, UniProt P32214 25-516)
T2 construct: whole, on cells; Membranes of BHK tk'ts 13 cells transiently transfected with the rat calcitonin receptor; also called rCTR; rat calcitonin (a) receptor
T2 sequence (looked up): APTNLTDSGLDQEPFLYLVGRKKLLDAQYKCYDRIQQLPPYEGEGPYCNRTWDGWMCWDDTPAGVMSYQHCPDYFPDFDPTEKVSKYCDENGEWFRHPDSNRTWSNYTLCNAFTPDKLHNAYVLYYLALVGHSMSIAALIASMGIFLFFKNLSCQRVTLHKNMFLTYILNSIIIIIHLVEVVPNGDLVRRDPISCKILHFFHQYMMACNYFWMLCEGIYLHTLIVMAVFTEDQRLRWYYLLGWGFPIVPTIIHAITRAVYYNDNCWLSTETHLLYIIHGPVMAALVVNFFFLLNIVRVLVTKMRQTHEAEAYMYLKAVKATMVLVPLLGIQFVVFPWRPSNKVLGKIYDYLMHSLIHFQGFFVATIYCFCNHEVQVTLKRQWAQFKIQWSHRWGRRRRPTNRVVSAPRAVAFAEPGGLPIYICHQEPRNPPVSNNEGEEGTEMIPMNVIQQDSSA

T3: rat amylin receptor (rat calcitonin receptor + rat RAMP 3) (rat, UniProt P32214 25-516; Q9JJ73 23-147)
T3 construct: whole, on cells; Membranes of BHK tk'ts 13 cells transiently transfected with the rat calcitonin receptor and rat RAMP 3; also called rAmylin-R; rat amylin 3(a) receptor
T3 sequence (looked up) 1: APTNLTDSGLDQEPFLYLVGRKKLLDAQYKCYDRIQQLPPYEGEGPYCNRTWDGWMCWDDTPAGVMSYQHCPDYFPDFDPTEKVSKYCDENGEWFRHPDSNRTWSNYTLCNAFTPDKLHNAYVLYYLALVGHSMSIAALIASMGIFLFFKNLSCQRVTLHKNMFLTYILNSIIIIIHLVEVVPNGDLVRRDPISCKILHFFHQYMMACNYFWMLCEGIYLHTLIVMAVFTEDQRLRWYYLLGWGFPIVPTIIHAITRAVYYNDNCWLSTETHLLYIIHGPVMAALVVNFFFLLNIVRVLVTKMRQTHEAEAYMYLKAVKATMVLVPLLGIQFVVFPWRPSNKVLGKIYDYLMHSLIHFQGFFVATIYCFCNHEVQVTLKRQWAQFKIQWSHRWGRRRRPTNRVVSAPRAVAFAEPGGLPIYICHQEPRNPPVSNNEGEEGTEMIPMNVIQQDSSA
T3 sequence (looked up) 2: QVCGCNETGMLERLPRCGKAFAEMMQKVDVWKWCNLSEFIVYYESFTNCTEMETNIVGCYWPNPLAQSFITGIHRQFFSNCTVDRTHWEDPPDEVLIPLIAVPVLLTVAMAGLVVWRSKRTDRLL


What was measured:
[1] = molecular target: T1, human calcitonin receptor; assay: IC50 at hCTR divided by IC50 at hAmylin-R (reference)
Procedure, shortened: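 IC₅₀ values were derived by one-site competition analysis of SPA counts. Cell membranes (35 ng/μL) with SPA beads were incubated with test compounds for 120 min at 25° C in Hepes buffer, pH 7.4, containing CaCl2, MgCl₂, OA and Tween20.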

[2] = molecular target: T2, rat calcitonin receptor; assay: IC50 at rCTR divided by IC50 at rAmylin-R (reference)
[3] = molecular target: T2, rat calcitonin receptor; assay: SPA competition vs 125I-calcitonin, membranes with rat CTR (Assay VIII)
[4] = molecular target: T3, rat amylin receptor (rat calcitonin …); assay: SPA competition vs 125I-rat amylin, membranes with rat CTR + rat RAMP3 (Assay VI)

Binder	Ratio hCT/hAmylin binding [1]	Ratio rCT/rAmylin binding [2]	IC50 [3]	IC50 [4]
K([γGlu-C20 diacid])RCNTATCATQRLANFLRHSSPNFGAIPSSTNVGSHTY-NH2 (disulfide 3-8; N-terminus assumed; SMILES CC[C@H](C)[C@H](NC(=O)[C@H](C)NC(=O)CNC(=O)[C@H](Cc1ccccc1)NC(=O)[C@H](CC(N)=O)NC(=O)[C@@H]1CCCN1C(=O)[C@H](CO)NC(=O)[C@H](CO)NC(=O)[C@H](Cc1c[nH]cn1)NC(=O)[C@H](CCCNC(=N)N)NC(=O)[C@H](CC(C)C)NC(=O)[C@H](Cc1ccccc1)NC(=O)[C@H](CC(N)=O)NC(=O)[C@H](C)NC(=O)[C@H](CC(C)C)NC(=O)[C@H](CCCNC(=N)N)NC(=O)[C@H](CCC(N)=O)NC(=O)[C@@H](NC(=O)[C@H](C)NC(=O)[C@@H]1CSSC[C@H](NC(=O)[C@H](CCCNC(=N)N)NC(=O)[C@@H](N)CCCCNC(=O)CC[C@H](NC(=O)CCCCCCCCCCCCCCCCCCC(=O)O)C(=O)O)C(=O)N[C@@H](CC(N)=O)C(=O)N[C@@H]([C@@H](C)O)C(=O)N[C@@H](C)C(=O)N[C@@H]([C@@H](C)O)C(=O)N1)[C@@H](C)O)C(=O)N1CCC[C@H]1C(=O)N[C@@H](CO)C(=O)N[C@@H](CO)C(=O)N[C@H](C(=O)N[C@@H](CC(N)=O)C(=O)N[C@H](C(=O)NCC(=O)N[C@@H](CO)C(=O)N[C@@H](Cc1c[nH]cn1)C(=O)N[C@H](C(=O)N[C@@H](Cc1ccc(O)cc1)C(N)=O)[C@@H](C)O)C(C)C)[C@@H](C)O, modifications are with respect to human amylin; also called compound 44)	17.7	53.3	19.6 nM	0.369 nM
{C20 diacid-γGlu}-GRCNTATCATQRLANFLRHSSPNFGAIPSSTNVGSNTY-NH2 (disulfide 3-8; SMILES CC[C@H](C)[C@H](NC(=O)[C@H](C)NC(=O)CNC(=O)[C@H](Cc1ccccc1)NC(=O)[C@H](CC(N)=O)NC(=O)[C@@H]1CCCN1C(=O)[C@H](CO)NC(=O)[C@H](CO)NC(=O)[C@H](Cc1c[nH]cn1)NC(=O)[C@H](CCCNC(=N)N)NC(=O)[C@H](CC(C)C)NC(=O)[C@H](Cc1ccccc1)NC(=O)[C@H](CC(N)=O)NC(=O)[C@H](C)NC(=O)[C@H](CC(C)C)NC(=O)[C@H](CCCNC(=N)N)NC(=O)[C@H](CCC(N)=O)NC(=O)[C@@H](NC(=O)[C@H](C)NC(=O)[C@@H]1CSSC[C@H](NC(=O)[C@H](CCCNC(=N)N)NC(=O)CNC(=O)CC[C@H](NC(=O)CCCCCCCCCCCCCCCCCCC(=O)O)C(=O)O)C(=O)N[C@@H](CC(N)=O)C(=O)N[C@@H]([C@@H](C)O)C(=O)N[C@@H](C)C(=O)N[C@@H]([C@@H](C)O)C(=O)N1)[C@@H](C)O)C(=O)N1CCC[C@H]1C(=O)N[C@@H](CO)C(=O)N[C@@H](CO)C(=O)N[C@H](C(=O)N[C@@H](CC(N)=O)C(=O)N[C@H](C(=O)NCC(=O)N[C@@H](CO)C(=O)N[C@@H](CC(N)=O)C(=O)N[C@H](C(=O)N[C@@H](Cc1ccc(O)cc1)C(N)=O)[C@@H](C)O)C(C)C)[C@@H](C)O, modifications are with respect to human amylin; also called compound 46) [N^-1-[(4S)-4-carboxy-4-(19-carboxynonadecanoylamino)butanoyl]-Gly[Arg1,Arg17,Pro21,Pro27]-h-amylin]	48.9	142	46.8 nM	0.33 nM
K([AEEA-γGlu-C20 diacid])CNTATCATQRLANFLRHSSPNFGAIPSSTNVGSNTY-NH2 (disulfide 2-7; N-terminus assumed; SMILES CC[C@H](C)[C@H](NC(=O)[C@H](C)NC(=O)CNC(=O)[C@H](Cc1ccccc1)NC(=O)[C@H](CC(N)=O)NC(=O)[C@@H]1CCCN1C(=O)[C@H](CO)NC(=O)[C@H](CO)NC(=O)[C@H](Cc1c[nH]cn1)NC(=O)[C@H](CCCNC(=N)N)NC(=O)[C@H](CC(C)C)NC(=O)[C@H](Cc1ccccc1)NC(=O)[C@H](CC(N)=O)NC(=O)[C@H](C)NC(=O)[C@H](CC(C)C)NC(=O)[C@H](CCCNC(=N)N)NC(=O)[C@H](CCC(N)=O)NC(=O)[C@@H](NC(=O)[C@H](C)NC(=O)[C@@H]1CSSC[C@H](NC(=O)[C@@H](N)CCCCNC(=O)COCCOCCNC(=O)CC[C@H](NC(=O)CCCCCCCCCCCCCCCCCCC(=O)O)C(=O)O)C(=O)N[C@@H](CC(N)=O)C(=O)N[C@@H]([C@@H](C)O)C(=O)N[C@@H](C)C(=O)N[C@@H]([C@@H](C)O)C(=O)N1)[C@@H](C)O)C(=O)N1CCC[C@H]1C(=O)N[C@@H](CO)C(=O)N[C@@H](CO)C(=O)N[C@H](C(=O)N[C@@H](CC(N)=O)C(=O)N[C@H](C(=O)NCC(=O)N[C@@H](CO)C(=O)N[C@@H](CC(N)=O)C(=O)N[C@H](C(=O)N[C@@H](Cc1ccc(O)cc1)C(N)=O)[C@@H](C)O)C(C)C)[C@@H](C)O, modifications are with respect to human amylin; also called compound 41)	49.9	54	74.1 nM	1.37 nM

The next binders have a lower IC50 [3] than those just listed; values first:

Ratio hCT/hAmylin binding [1]	Ratio rCT/rAmylin binding [2]	IC50 [3]	IC50 [4]	Binder
44.9	84.3	17.1 nM	0.203 nM	{C20 diacid-γGlu}-GRCNTATCATQRLANFLRHSSPNFGAIPSSTNVGSHTY-NH2 (disulfide 3-8; SMILES CC[C@H](C)[C@H](NC(=O)[C@H](C)NC(=O)CNC(=O)[C@H](Cc1ccccc1)NC(=O)[C@H](CC(N)=O)NC(=O)[C@@H]1CCCN1C(=O)[C@H](CO)NC(=O)[C@H](CO)NC(=O)[C@H](Cc1c[nH]cn1)NC(=O)[C@H](CCCNC(=N)N)NC(=O)[C@H](CC(C)C)NC(=O)[C@H](Cc1ccccc1)NC(=O)[C@H](CC(N)=O)NC(=O)[C@H](C)NC(=O)[C@H](CC(C)C)NC(=O)[C@H](CCCNC(=N)N)NC(=O)[C@H](CCC(N)=O)NC(=O)[C@@H](NC(=O)[C@H](C)NC(=O)[C@@H]1CSSC[C@H](NC(=O)[C@H](CCCNC(=N)N)NC(=O)CNC(=O)CC[C@H](NC(=O)CCCCCCCCCCCCCCCCCCC(=O)O)C(=O)O)C(=O)N[C@@H](CC(N)=O)C(=O)N[C@@H]([C@@H](C)O)C(=O)N[C@@H](C)C(=O)N[C@@H]([C@@H](C)O)C(=O)N1)[C@@H](C)O)C(=O)N1CCC[C@H]1C(=O)N[C@@H](CO)C(=O)N[C@@H](CO)C(=O)N[C@H](C(=O)N[C@@H](CC(N)=O)C(=O)N[C@H](C(=O)NCC(=O)N[C@@H](CO)C(=O)N[C@@H](Cc1c[nH]cn1)C(=O)N[C@H](C(=O)N[C@@H](Cc1ccc(O)cc1)C(N)=O)[C@@H](C)O)C(C)C)[C@@H](C)O, modifications are with respect to human amylin; also called compound 47)
34.7	69.1	7.6 nM	0.11 nM	K([AEEA-C20 diacid])CNTATCATQRLANFLRHSSPNFGAIPSSTNVGSNTY-NH2 (disulfide 2-7; N-terminus assumed; SMILES CC[C@H](C)[C@H](NC(=O)[C@H](C)NC(=O)CNC(=O)[C@H](Cc1ccccc1)NC(=O)[C@H](CC(N)=O)NC(=O)[C@@H]1CCCN1C(=O)[C@H](CO)NC(=O)[C@H](CO)NC(=O)[C@H](Cc1c[nH]cn1)NC(=O)[C@H](CCCNC(=N)N)NC(=O)[C@H](CC(C)C)NC(=O)[C@H](Cc1ccccc1)NC(=O)[C@H](CC(N)=O)NC(=O)[C@H](C)NC(=O)[C@H](CC(C)C)NC(=O)[C@H](CCCNC(=N)N)NC(=O)[C@H](CCC(N)=O)NC(=O)[C@@H](NC(=O)[C@H](C)NC(=O)[C@@H]1CSSC[C@H](NC(=O)[C@@H](N)CCCCNC(=O)COCCOCCNC(=O)CCCCCCCCCCCCCCCCCCC(=O)O)C(=O)N[C@@H](CC(N)=O)C(=O)N[C@@H]([C@@H](C)O)C(=O)N[C@@H](C)C(=O)N[C@@H]([C@@H](C)O)C(=O)N1)[C@@H](C)O)C(=O)N1CCC[C@H]1C(=O)N[C@@H](CO)C(=O)N[C@@H](CO)C(=O)N[C@H](C(=O)N[C@@H](CC(N)=O)C(=O)N[C@H](C(=O)NCC(=O)N[C@@H](CO)C(=O)N[C@@H](CC(N)=O)C(=O)N[C@H](C(=O)N[C@@H](Cc1ccc(O)cc1)C(N)=O)[C@@H](C)O)C(C)C)[C@@H](C)O, modifications are with respect to human amylin; also called compound 43) [N^ε1-[2-[2-[2-(19-carboxynonadecanoylamino)ethoxy]ethoxy]acetyl]-[Arg17,Pro21,Pro27]-h-amylin]
